This is an account of results in patent US20260248932A1, “CATIONIC AMPHIPHILIC POLYPEPTIDE FOR DELIVERING RNA AND METHOD FOR PREPARING THE SAME” (INHA UNIVERSITY RESEARCH AND BUSINESS FOUNDATION, priority 2023, published 2026).

Where only a bound is given, the exact number is not on record here.

This data set in a line: Critical association concentration (CAC) by static light scattering. The class given is physicochemical. To be noted: 10 mM HEPES buffer (pH 7.3), 0.001~4 mg/ml. Here is the method: For the light scattered intensity of the polypeptide, the static light scattering was measured at 25° C. and a detection angle of 173° using Zetasizer Pro (Malvern Panalytical, Worcestershire, UK) equipped with a He—Ne laser (2=633 nm). Samples in 10 mM HEPES buffer (pH 7.3) were analyzed using a low-volume quartz cuvette (ZEN2112, Malvern Panalytic).
The critical association concentration (hereinafter referred to as CAC) of peptides measured by static light scattering was analyzed. […] Homopolypeptide (DDDDDDDD) used as the control group was well dissolved in buffer (pH 7.3), but no CAC appeared up to treatment concentration of 4 mg/mL.

In the case of “DDDDDDDD [octameric homopolypeptide of L-Asp(DET) units used as the control group]”, the “critical association concentration (CAC)” value was above 4 mg/mL.
